Test results reported in publication doi:10.1101/2021.01.21.427698 (bioRxiv, 2021).

Molecular target: the molecule itself
Experiment: negative-stain electron microscopy of septin polymerisation

Row | Protein | binding result
1 | recombinant mammalian SEPT9_i3-containing octamers (mouse SEPT2, human SEPT6, human SEPT7ΔN19, human SEPT9_i3) (complex) chain 1: MSKQQPTQFINPETPGYVGFANLPNQVHRKSVKKGFEFTLMVVGESGLGKSTLINSLFLTDLYPERIIPGAAEKIERTVQIEASTVEIEERGVKLRLTVVDTPGYGDAINCRDCFKTIISYIDEQFERYLHDESGLNRRHIIDNRVHCCFYFISPFGHGLKPLDVAFMKAIHNKVNIVPVIAKADTLTLKERERLKKRILDEIEEHSIKIYHLPDAESDEDEDFKEQTRLLKASIPFSVVGSNQLIEAKGKKVRGRLYPWGVVEVENPEHNDFLKLRTMLITHMQDLQEVTQDLHYENFRSERLKRGGRKVENEDMNKDQILLEKEAELRRMQEMIARMQAQMQMQMQGGDSDSGALGQHV chain 2: MAATDIARQVGEGCRTVPLAGHVGFDSLPDQLVNKSVSQGFCFNILCVGETGLGKSTLMDTLFNTKFEGEPATHTQPGVQLQSNTYDLQESNVRLKLTIVSTVGFGDQINKEDSYKPIVEFIDAQFEAYLQEELKIRRVLHTYHDSRIHVCLYFIAPTGHSLKSLDLVTMKKLDSKVNIIPIIAKADAISKSELTKFKIKITSELVSNGVQIYQFPTDDESVAEINGTMNAHLPFAVIGSTEELKIGNKMMRARQYPWGTVQVENEAHCDFVKLREMLIRVNMEDLREQTHTRHYELYRRCKLEEMGFKDTDPDSKPFSLQETYEAKRNEFLGELQKKEEEMRQMFVQRVKEKEAELKEAEKELHEKFDRLKKLHQDEKKKLEDKKKSLDDEVNAFKQRKTAAELLQSQGSQAGGSQTLKRDKEKKN chain 3: MVAQQKNLEGYVGFANLPNQVYRKSVKRGFEFTLMVVGESGLGKSTLINSLFLTDLYSPEYPGPSHRIKKTVQVEQSKVLIKEGGVQLLLTIVDTPGFGDAVDNSNCWQPVIDYIDSKFEDYLNAESRVNRRQMPDNRVQCCLYFIAPSGHGLKPLDIEFMKRLHEKVNIIPLIAKADTLTPEECQQFKKQIMKEIQEHKIKIYEFPETDDEEENKLVKKIKDRLPLAVVGSNTIIEVNGKRVRGRQYPWGVAEVENGEHCDFTILRNMLIRTHMQDLKDVTNNVHYENYRSRKLAAVTYNGVDNNKNKGQLTKSPLAQMEEERREHVAKMKKMEMEMEQVFEMKVKEKVQKLKDSEAELQRRHEQMKKNLEAQHKELEEKRRQFEDEKANWEAQQRILEQQNSSRTLEKNKKKGKIF chain 4: MERDRISALKRSFEVEEVETPNSTPPRRVQTPLLRATVASSTQKFQDLGVKNSEPSARHVDSLSQRSPKASLRRVELSGPKAAEPVSRRTELSIDISSKQVENAGAIGPSRFGLKRAEVLGHKTPEPAPRRTEITIVKPQESAHRRMEPPASKVPEVPTAPATDAAPKRVEIQMPKPAEAPTAPSPAQTLENSEPAPVSQLQSRLEPKPQPPVAEATPRSQEATEAAPSCVGDMADTPRDAGLKQAPASRNEKAPVDFGYVGIDSILEQMRRKAMKQGFEFNIMVVGQSGLGKSTLINTLFKSKISRKSVQPTSEERIPKTIEIKSITHDIEEKGVRMKLTVIDTPGFGDHINNENCWQPIMKFINDQYEKYLQEEVNINRKKRIPDTRVHCCLYFIPATGHSLRPLDIEFMKRLSKVVNIVPVIAKADTLTLEERVHFKQRITADLLSNGIDVYPQKEFDEDSEDRLVNEKFREMIPFAVVGSDHEYQVNGKRILGRKTKWGTIEVENTTHCEFAYLRDLLIRTHMQNIKDITSSIHFEAYRVKRLNEGSSAMANGVEEKEPEAPEM | binds
2 | recombinant mammalian SEPT2-, SEPT6-, SEPT7-containing hexamers (mouse SEPT2, human SEPT6, human SEPT7ΔN19) (complex) chain 1: MSKQQPTQFINPETPGYVGFANLPNQVHRKSVKKGFEFTLMVVGESGLGKSTLINSLFLTDLYPERIIPGAAEKIERTVQIEASTVEIEERGVKLRLTVVDTPGYGDAINCRDCFKTIISYIDEQFERYLHDESGLNRRHIIDNRVHCCFYFISPFGHGLKPLDVAFMKAIHNKVNIVPVIAKADTLTLKERERLKKRILDEIEEHSIKIYHLPDAESDEDEDFKEQTRLLKASIPFSVVGSNQLIEAKGKKVRGRLYPWGVVEVENPEHNDFLKLRTMLITHMQDLQEVTQDLHYENFRSERLKRGGRKVENEDMNKDQILLEKEAELRRMQEMIARMQAQMQMQMQGGDSDSGALGQHV chain 2: MAATDIARQVGEGCRTVPLAGHVGFDSLPDQLVNKSVSQGFCFNILCVGETGLGKSTLMDTLFNTKFEGEPATHTQPGVQLQSNTYDLQESNVRLKLTIVSTVGFGDQINKEDSYKPIVEFIDAQFEAYLQEELKIRRVLHTYHDSRIHVCLYFIAPTGHSLKSLDLVTMKKLDSKVNIIPIIAKADAISKSELTKFKIKITSELVSNGVQIYQFPTDDESVAEINGTMNAHLPFAVIGSTEELKIGNKMMRARQYPWGTVQVENEAHCDFVKLREMLIRVNMEDLREQTHTRHYELYRRCKLEEMGFKDTDPDSKPFSLQETYEAKRNEFLGELQKKEEEMRQMFVQRVKEKEAELKEAEKELHEKFDRLKKLHQDEKKKLEDKKKSLDDEVNAFKQRKTAAELLQSQGSQAGGSQTLKRDKEKKN chain 3: MVAQQKNLEGYVGFANLPNQVYRKSVKRGFEFTLMVVGESGLGKSTLINSLFLTDLYSPEYPGPSHRIKKTVQVEQSKVLIKEGGVQLLLTIVDTPGFGDAVDNSNCWQPVIDYIDSKFEDYLNAESRVNRRQMPDNRVQCCLYFIAPSGHGLKPLDIEFMKRLHEKVNIIPLIAKADTLTPEECQQFKKQIMKEIQEHKIKIYEFPETDDEEENKLVKKIKDRLPLAVVGSNTIIEVNGKRVRGRQYPWGVAEVENGEHCDFTILRNMLIRTHMQDLKDVTNNVHYENYRSRKLAAVTYNGVDNNKNKGQLTKSPLAQMEEERREHVAKMKKMEMEMEQVFEMKVKEKVQKLKDSEAELQRRHEQMKKNLEAQHKELEEKRRQFEDEKANWEAQQRILEQQNSSRTLEKNKKKGKIF | binds
